Measured values: patent US20210332138A1 (1GLOBE BIOMEDICAL, published 2021)

B1: full-length antibody 4-1E8 (antibody, human IgG1, V domains shown)
VH: QIQLVQSGAEVKMPGASVTISCEASGYNFISYYIHWVRQAPGQGLEWMGFVVPSGGAAGYTQKFQGRLTVTRDTSTSTVYMDLNSLTSDDTAVYYCVREMSGGWFDFWGQGTLVTVSS
VL: DIVMTQSPSSLSASVGDRVTITCRASQGIRNDLGWYQQKPGKAPKLLIYAASTLQSGVPSRFSGSGSGTDFTLTISSLQAEDVAVYYCQQYYSTPLTFGPGTKVDIK
notes: Tested as a full-length antibody made from the scFv's VH and VL in 293T cells; the summary speaks of a human IgG1 constant region, and ADCC activity is reported
B2: full-length antibody 3-1E4 (antibody, human IgG1, V domains shown)
VH: QIQLVQSGAEVKKPGSSVKVSCKASGGTFSSYAISWVRQAPGQGLEWMGGIIPIFGTANYAQKFQGRVTITADKSTSTAYMELSSLRSEDTAVYYCAGGGAVADNSYWGQGTLVTVSS
VL: DIRMTQSPSSLSASVGDRVTITCRASQGIRNDLGWYQQKPGKAPKLLIYAASSLQSGVPSRFSGSGSGTDFTLTISSLQPEDFATYYCLQDYNYPRTFGQGTKVEIK
notes: Tested as a full-length antibody; the summary speaks of human IgG1
B3: full-length antibody 3-1B11 (antibody, human IgG1, V domains shown)
VH: EVQLVESGGGLVQPGGSLRLSCAASGFTFSDYDMIWVRQAPGKGLEWVAVISYDGSNKYYADSVKGRFTISRDNSKNTLYLQMNSLRAEDTAVYYCAKEFFGAFDIWGQGTMVTVSS
VL: SSELTQDPAVSVALGQTVTITCQGDSLNYYYANWFQLKPGQAPVLVLFGKNNRPSGIPDRFSGSYSGSTASLTITGAQAEDDADYYCNSRDSGGNPWVFGGGTKLTVL
notes: as for B2

Legend:
[1] = target: T1, Rhesus PDL1 (expression construct transiently transfected into 293T cells) (Rhesus, UniProt F6VEW6 19-290); assay: FACS on 293T cells transiently transfected with Rhesus PDL1
T1 construct: whole, on cells
Protocol: (B) 293T cells were transiently transfected with Rhesus PDL1 expression construct. Embodiments 4-1E8, 3-1E4 and 3-1B11 were tested and compared to control.

[2] = target: T2, Rhesus PDL1-GFP (expression construct transiently transfected into 293T cells) (Rhesus, UniProt F6VEW6 19-290); assay: FACS on 293T cells transiently transfected with Rhesus PDL1-GFP
T2 construct: whole, on cells; not shown: GFP fused to PDL1
T2 sequence (chain, as listed by the source): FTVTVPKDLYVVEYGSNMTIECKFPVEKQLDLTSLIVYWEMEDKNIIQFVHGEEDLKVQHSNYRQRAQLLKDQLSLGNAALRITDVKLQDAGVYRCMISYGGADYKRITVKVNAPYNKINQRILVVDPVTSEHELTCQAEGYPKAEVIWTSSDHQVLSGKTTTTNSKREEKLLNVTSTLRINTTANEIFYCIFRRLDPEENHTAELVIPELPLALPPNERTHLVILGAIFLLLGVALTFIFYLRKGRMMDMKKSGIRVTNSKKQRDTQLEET
Protocol: (A) 293T cells were transiently transfected with Rhesus PDL1-GFP expression construct. Embodiments 4-1E8, 3-1E4 and 3-1B11 were tested and compared to control.

binding result [1] | binding result [2] | Binder
binds | binds | B1
binds | binds | B2
binds | binds | B3
